Reference: paper PMC2423479

Target: Pgc ORF1, (His)6-tagged, 71-residue oligopeptide encoded by Drosophila polar granule component (pgc) ORF1 (Drosophila melanogaster)
Experiment: SEC; refolded (His)6-tagged Pgc ORF1 on a size-exclusion column; two species migrating at 18 kDa and 36 kDa; dimer to monomers; column and buffer not stated

stoichiometry N: 2
Substance: Pgc ORF1, (His)6-tagged, 71-residue oligopeptide encoded by Drosophila polar granule component (pgc) ORF1 (natural protein)
